From patent US20150274836A1 (US Dept. of Health and Human Services, published 2015) come the findings set out here.

Test [1] has as its target T1, SD1-human Fc fusion protein (human, UniProt P01857 104-330 = IgG part).
T1 construct: domain: CH2 and CH3 in the constant region of human IgG heavy chain gamma 1; also called SD1-hFc
Put plainly: direct ELISA, coated antigen. (ELISA stands for enzyme-linked immunosorbent assay.)

In test [2] the target is T1, SD1-human Fc fusion protein. Put plainly: ELISA on coated human mesothelin protein, equilibrium constant by Prism / Scatchard.
Test [3] shares this target. Put plainly: ELISA on coated human mesothelin protein (FIG. 3C).

T1 sequence (P01857 other isoform, or with tags, fused parts or gaps limits assumed): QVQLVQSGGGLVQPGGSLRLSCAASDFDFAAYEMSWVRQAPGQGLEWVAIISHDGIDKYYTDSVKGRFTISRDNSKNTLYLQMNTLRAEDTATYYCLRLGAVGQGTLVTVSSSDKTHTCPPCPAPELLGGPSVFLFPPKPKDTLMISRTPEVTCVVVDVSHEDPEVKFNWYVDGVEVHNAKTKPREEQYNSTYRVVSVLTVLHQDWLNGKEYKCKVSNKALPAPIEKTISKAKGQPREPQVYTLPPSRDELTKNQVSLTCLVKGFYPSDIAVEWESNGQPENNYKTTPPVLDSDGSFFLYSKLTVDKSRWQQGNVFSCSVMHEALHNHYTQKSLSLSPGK

B1: full-length mouse mesothelin protein (other)
chain: DAEQKACPPGKEPYKVDEDLIFYQNWELEACVDGTMLARQMDLVNEIPFTYEQLSIFKHKLDKTYPQGYPESLIQQLGHFFRYVSPEDIHQWNVTSPDTVKTLLKVSKGQKMNAQAIALVACYLRGGGQLDEDMVKALGDIPLSYLCDFSPQDLHSVPSSVMWLVGPQDLDKCSQRHLGLLYQKACSAFQNVSGLEYFEKIKTFLGGASVKDLRALSQHNVSMDIATFKRLQVDSLVGLSVAEVQKLLGPNIVDLKTEEDKSPVRDWLFRQHQKDLDRLGLGLQGGIPNGYLVLDFNVREAFS
notes: also called mMSLN; murine mesothelin
Regarding B1, in test [1], the binding result is “no binding”.

B2: full-length human mesothelin protein (other)
chain: EVEKTACPSGKKAPEIDESLIFYKKWELEACVDAALLATQMDRVNAIPFTYEQLDVLKHKLDELYPQGYPESVIQHLGYLFLKMSPEDIRKWNVTSLETLKALLEVNKGHEMSPQVATLIDRFVKGRGQLDKDTLDTLTAFYPGYLCSLSPEELSSVPPSSIWAVRPQDLDTCDPRQLDVLYPKARLAFQNMNGSEYFVKIQSFLGGAPTEDLKALSQQNVSMDLATFMKLRTDAVLPLTVAEVQKLLGPHVEGLKAEERHRPVRDWILRQRQDDLDTLGLGLQGGIPNGYLVLDLSMQEALS
notes: also called MSLN; full-length mesothelin
For orientation: Kd means the free concentration of one partner at which half of the binding sites on the other are occupied at equilibrium, for simple one-to-one binding. Lower therefore signals tighter binding. Take B2: the dissociation constant Kd in test [2] and in test [3] was 13.6 nM throughout.
